Measurements: article doi:10.1101/266718 (bioRxiv, 2018)

Biological target: T1, Dcp1:Dcp2(1-504) (S. pombe, UniProt Q9P805 1-127; O13828 1-504)
T1 sequence (looked up) 1: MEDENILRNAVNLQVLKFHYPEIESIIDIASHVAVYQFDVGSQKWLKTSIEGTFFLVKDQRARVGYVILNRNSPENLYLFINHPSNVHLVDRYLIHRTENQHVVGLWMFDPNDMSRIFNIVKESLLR
T1 sequence (looked up) 2: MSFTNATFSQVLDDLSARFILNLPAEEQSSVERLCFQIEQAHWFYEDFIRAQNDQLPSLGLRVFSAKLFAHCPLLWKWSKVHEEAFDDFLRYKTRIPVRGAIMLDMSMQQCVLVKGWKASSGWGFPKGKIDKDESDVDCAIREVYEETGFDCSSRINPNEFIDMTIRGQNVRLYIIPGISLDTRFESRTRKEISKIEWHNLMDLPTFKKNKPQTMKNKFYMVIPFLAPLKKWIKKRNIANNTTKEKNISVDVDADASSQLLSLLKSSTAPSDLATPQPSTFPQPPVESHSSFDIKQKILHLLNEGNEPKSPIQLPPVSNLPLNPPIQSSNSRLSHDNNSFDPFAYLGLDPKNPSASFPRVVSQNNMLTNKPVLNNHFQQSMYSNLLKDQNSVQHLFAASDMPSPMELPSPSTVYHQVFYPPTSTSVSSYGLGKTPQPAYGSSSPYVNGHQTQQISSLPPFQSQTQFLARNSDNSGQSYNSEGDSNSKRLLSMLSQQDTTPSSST
Assay: cell-based or functional assay

B1: Edc3 (natural protein, S. pombe, UniProt O94752 1-454, looked up)
chain: MSVADFYGSNVEVLLNNDSKARGVITNFDSSNSILQLRLANDSTKSIVTKDIKDLRILPKNEIMPKNGTKSPSTNSTKLKSAETYSSKNKWSMDCDEEFDFAANLEKFDKKQVFAEFREKDKKDPAKLLVSHNKSPNRNYHHKQNVLGPSVKDEFVDLPSAGSQINGIDAVLSSSSNGHVTPGSKKGSRETLKKKPFVDENIPAELHTTTGDILKPITPEQLSQGIALAIAKTSTDIVVENAAQLLSQFVFSVLGGHKRLSSRNHNSQPLVCILVGSHDHASAAVAAGRRLCAIGIKVVLRLLTPFNVDNRQLLMFQAAGGYIPTENFDQFLNKLTSPIELVVDVLTGFHPSIDKNSHALIQWANDLNVLILSVDIPSGYTVQKKNTAILPKWTLALGAVTTTLAQAALVKQAAGVSVFVGNLGTGSQTWAELGILESQVTGQYLAQISCTSTN
- stimulation of the decapping rate of Dcp1:Dcp2ext by excess Edc3: 30 fold
